Source: PMC5147791 (PLoS Neglected Tropical Diseases, 2016)

How the values were obtained:
[1] = molecular target: SmMTAP S12T/N87T double mutant (Schistosoma mansoni); experiment: crystal structure
[2] = molecular target: SmMTAP N87T mutant (Schistosoma mansoni); experiment: crystal structure
[3] = molecular target: SmMTAP Q289L mutant (Schistosoma mansoni); experiment: crystal structure
[4] = molecular target: T1, SmMTAP (Schistosoma mansoni, UniProt I0B503); experiment: X-ray crystal structure; format: binding
T1 construct: trimer; adult worm cDNA, corrected 3' end versus gene model Smp_028190
T1 sequence (I0B503 1-299): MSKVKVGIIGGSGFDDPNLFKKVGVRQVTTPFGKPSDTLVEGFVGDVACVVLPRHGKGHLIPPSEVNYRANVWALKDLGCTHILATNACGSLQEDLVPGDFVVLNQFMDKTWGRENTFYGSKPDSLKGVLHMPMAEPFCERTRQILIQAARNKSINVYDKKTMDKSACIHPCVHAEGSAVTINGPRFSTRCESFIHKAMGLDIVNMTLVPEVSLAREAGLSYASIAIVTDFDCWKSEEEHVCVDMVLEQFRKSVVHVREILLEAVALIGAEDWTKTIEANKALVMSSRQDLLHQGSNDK

[5] = molecular target: Schistosoma mansoni 5'-deoxy-5'-methylthioadenosine phosphorylase, wild type (Schistosoma mansoni); experiment: crystal structure; hanging drop at 18°C, 100 mM Bis-tris or MES pH 6.1-6.7, 14-18% PEG 3350, protein 6 mg/mL; apo or with adenine, MTA, tubercidin, sulphate; one or two trimers in the asymmetric unit
[6] = molecular target: SmMTAP S12T mutant (Schistosoma mansoni); experiment: crystal structure
[7] = substrate: O=P(O)(O)O; experiment: purified protein; details: 100 mM Hepes pH 7.4, room temperature, nucleoside co-substrate not stated
[8] = substrate: CSC[C@H]1O[C@@H](n2cnc3c(N)ncnc32)[C@H](O)[C@@H]1O; experiment: xanthine oxidase coupled assay, A305; format: biochemical, Schistosoma mansoni; details: 100 mM potassium phosphate pH 7.4, room temperature
Description: (§1) xanthine oxidase coupled assay, A305 on SmMTAP

[9] = substrate: Nc1ncnc2c1ncn2[C@@H]1O[C@H](CO)[C@@H](O)[C@H]1O; experiment: xanthine oxidase coupled assay, A305; format: biochemical, Schistosoma mansoni; details: 100 mM potassium phosphate pH 7.4, room temperature
Description: as §1

[10] = substrate: Nc1ncnc2c1ncn2[C@H]1C[C@H](O)[C@@H](CO)O1; experiment: xanthine oxidase coupled assay, A305; format: biochemical, Schistosoma mansoni; details: 100 mM potassium phosphate pH 7.4, room temperature
Description: as §1

SmMTAP S12T/N87T double mutant (enzyme)
stoichiometry N [1]: 3

SmMTAP N87T mutant (enzyme)
stoichiometry N [2]: 3

SmMTAP Q289L mutant (enzyme)
stoichiometry N [3]: 3

Nc1ncnc2[nH]cnc12 [adenine]
X-ray crystal structure ([4]; base binding site, grown at pH 6.1-6.7, PEG 3350): the only WT structure whose BBS are all occupied is the orthorhombic SmMTAP adenine complex

Nc1ncnc2c1ccn2[C@@H]1O[C@H](CO)[C@@H](O)[C@H]1O [tubercidin]
X-ray crystal structure ([4]; active site, crystals grown with 5 mM ligand): In the MTAP tubercidin complex, all of the active sites are occupied

Schistosoma mansoni 5'-deoxy-5'-methylthioadenosine phosphorylase, wild type (enzyme)
stoichiometry N [5]: 3

SmMTAP S12T mutant (enzyme)
stoichiometry N [6]: 3

B1: SmMTAP (Schistosoma mansoni) (protein)
chain: MSKVKVGIIGGSGFDDPNLFKKVGVRQVTTPFGKPSDTLVEGFVGDVACVVLPRHGKGHLIPPSEVNYRANVWALKDLGCTHILATNACGSLQEDLVPGDFVVLNQFMDKTWGRENTFYGSKPDSLKGVLHMPMAEPFCERTRQILIQAARNKSINVYDKKTMDKSACIHPCVHAEGSAVTINGPRFSTRCESFIHKAMGLDIVNMTLVPEVSLAREAGLSYASIAIVTDFDCWKSEEEHVCVDMVLEQFRKSVVHVREILLEAVALIGAEDWTKTIEANKALVMSSRQDLLHQGSNDK
notes: trimer; adult worm cDNA, corrected 3' end versus gene model Smp_028190
Km [7]: 65.58 ± 4.69 µM | Vmax [7]: 0.0358 µM/min | kcat [7]: 478 s⁻¹ | kcat/Km [7]: 7.28e+06 M⁻¹ s⁻¹ | Km [8]: 3.63 ± 0.14 µM | Vmax [8]: 0.0666 µM/min | kcat [8]: 444 ± 5.72 s⁻¹ | kcat/Km [8]: 1.22e+08 ± 4.97e+06 M⁻¹ s⁻¹ | Km [9]: 3.14 ± 0.16 µM | Vmax [9]: 0.0501 µM/min | kcat [9]: 334 ± 6.84 s⁻¹ | kcat/Km [9]: 1.06e+08 ± 5.84e+06 M⁻¹ s⁻¹ | Km [10]: 3.97 ± 0.41 µM | Vmax [10]: 0.0841 µM/min | kcat [10]: 224 ± 11.3 s⁻¹ | kcat/Km [10]: 5.65e+07 ± 6.49e+06 M⁻¹ s⁻¹
